Reference: PMC12691606

Target: RGNNV capsid protein (CP) of the virus (red-spotted grouper nervous necrosis virus (RGNNV))

B1: His-EcCXCR4b recombinant protein (pET-32a-EcCXCR4b) (receptor)
chain: MSYYEHIVFDYDLNDTGSGSGSGDMGVDLQELCDMEHVITDELQQVFLPVVYALIFILGITGNGLVVIVLGCQRRSKCSLTDRYRLHLSAADLLFVLALPFWAVDAALADWRFGEVTCVGVNVIYTVNLYGSVLILAFISLDRYLAVVRATDTNTGELRQLLAHKLVYVGAWLPAGLLAVPDLIYARTQEGGEGATLCQRFYPADNGPIWVAVFHLQLVLVGLVIPGLVLLVCYCVIVTRLTRGPLGGQRQKRRAVRTTIALVLCFFVCWLPYGAGISVDALLRLEVLPRSCRLEAILGVWLAVAEPMAFAHCCLNPLLYAFLGAGFKSSARRALTLSRASSLKILPRRRPGASTTTESESSSLHSS
- survival rate of groupers over 14 days after injection of RGNNV pre-incubated with His-EcCXCR4b protein (6× His control: 23.3%): 73.3%
